Data on three substances can be found in FireProtDB (doi:10.1016/j.ijbiomac.2020.05.059).

The conditions of this series: Equus caballus, pH 6, 25 °C, transition: 2.
Setting [1] is: GdnHCl, CD, sodium cacodylate, NaCl, reversible: yes, structure 1HRC.
Setting [2] is: GdnHCl, sodium cacodylate 100 mM, NaCl 100 mM, reversible: no, structure 1HRC.
Setting [3] is: Urea, CD, sodium cacodylate, NaCl, reversible: yes, structure 1HRC.
Where [4] appears, read: Urea, sodium cacodylate 100 mM, NaCl 100 mM, reversible: no, structure 1HRC.
The mark [5] stands for this setting: GdnHCl, CD, sodium cacodylate, NaCl, reversible: yes.

Where “and” joins values, the source holds several entries; their conditions need not be identical. Equal entries are not always repeated.

Chain of Cytochrome c L95V, P00004 (P00004 whole entry L95V): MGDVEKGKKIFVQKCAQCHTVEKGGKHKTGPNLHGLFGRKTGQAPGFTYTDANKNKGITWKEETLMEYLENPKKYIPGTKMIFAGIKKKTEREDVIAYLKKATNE
Chain of Cytochrome c L95I, P00004 (P00004 whole entry L95I): as the sequence (P00004 whole entry L95V) above, with V95I counted along it
Chain of Cytochrome c wild type, P00004 (P00004 whole entry): as the sequence (P00004 whole entry L95V) above, with V95L counted along it

For Cytochrome c L95I, P00004, under setting [1], the “ddG of mutation (higher = less stable)” value is 1.31 kcal/mol and 1.51 kcal/mol; the denaturant m value is 3.59 kcal/mol/M and 3.64 kcal/mol/M; the “denaturant midpoint (higher = more stable)” value (from here on “denaturant midpoint”) was 2.14 M and 2.15 M; the unfolding free energy was 7.69 kcal/mol and 7.95 kcal/mol. Moreover, under setting [2], the “ddG of mutation (higher = less stable)” value is 1.54 kcal/mol and 1.1 kcal/mol and 1.51 kcal/mol; the denaturant m value was 3.65 kcal/mol/M and 3.49 kcal/mol/M and 3.64 kcal/mol/M; the “denaturant midpoint” value is 2.18 M and 2.06 M and 2.15 M; the unfolding free energy is 7.96 kcal/mol and 7.17 kcal/mol and 7.95 kcal/mol. Under setting [3], the “ddG of mutation (higher = less stable)” value is 1.73 kcal/mol and 1.68 kcal/mol; the denaturant m value is 1.48 kcal/mol/M and 1.47 kcal/mol/M; the “denaturant midpoint” value is 5.87 M and 5.89 M; the unfolding free energy is 8.68 kcal/mol and 8.7 kcal/mol. Besides, under setting [4], the “ddG of mutation (higher = less stable)” value was 1.68 kcal/mol and 1.83 kcal/mol; the denaturant m value is 1.49 kcal/mol/M and 1.47 kcal/mol/M; the “denaturant midpoint” value is 5.9 M and 5.89 M; the unfolding free energy is 8.78 kcal/mol and 8.65 kcal/mol and 8.7 kcal/mol.
Consider Cytochrome c wild type, P00004, for which, under setting [5], the denaturant m value is 3.64 kcal/mol/M and 3.73 kcal/mol/M; the “denaturant midpoint” value was 2.47 M and 2.53 M; the unfolding free energy is 9 kcal/mol and 9.46 kcal/mol. Under “Urea, sodium cacodylate 100 mM, NaCl 100 mM, reversible: yes”, the unfolding free energy is 10.5 kcal/mol and 10.3 kcal/mol and 10.4 kcal/mol.
For the substance Cytochrome c L95V, P00004, under setting [1], the “ddG of mutation (higher = less stable)” value was 1.66 kcal/mol and 1.82 kcal/mol; the denaturant m value was 3.54 kcal/mol/M and 3.61 kcal/mol/M; the “denaturant midpoint” value is 2.07 M and 2.11 M; the unfolding free energy was 7.34 kcal/mol and 7.64 kcal/mol. In addition, the “denaturant midpoint” value under setting [2] was 2.1 M and 2.01 M and 2.11 M. For the same substance, under setting [3], the “ddG of mutation (higher = less stable)” value amounted to 2.36 kcal/mol, the denaturant m value came to 1.47 kcal/mol/M, the “denaturant midpoint” value amounted to 5.46 M and the unfolding free energy amounted to 8.02 kcal/mol. Moreover, under setting [4], the denaturant m value is 1.48 kcal/mol/M and 1.47 kcal/mol/M; the “denaturant midpoint” value was 5.46 M and 5.43 M.
